1 substance from US8586570B2, “Sox-based kinase sensor” (Massachusetts Institute of Technology, priority 2006, dated 2013) can be followed below.

Data set [1] in a line: Fluorescence increase, phosphopeptide vs unphosphorylated peptide at 485 nm. The class given is physicochemical. Conditions: phosphopeptide / unphosphorylated peptide intensity at 485 nm, generally 10 mM Mg2+. On the procedure: (§1) Fluorescence experiments were performed on a Fluoromax 3 from Jobin Yvon. 5 nm emission and excitation slit widths were used. For all experiments, an excitation wavelength of 360 nm was used. Enzyme assays were performed by monitoring emission at 485 nm.
After peptide characterization, emission spectra were obtained for unphosphorylated and phosphorylated peptides under appropriate conditions. The spectra were generally acquired in the presence of 10 mM Mg^2+(although lower Mg^2+concentrations can and have been used as well) and either 0, 0.1 or 1 mM ATP in a preselected buffer (usually 20 mM HEPES, pH 7.4). Relying on the emission spectra the fold fluorescence differences were measured by dividing the fluorescence intensity of the phosphopeptide by the fluorescence intensity of its unphosphorylated counterpart at 485 nm. FIG. 2 depicts the fluorescence spectra of the phosphorylated and unphosphorylated peptides in the appropriate assay mixture: (A) emissions scans of PKCβI-1 (10 μM), 10 mM Mg(II), 3×; (B) emissions scans of PKCβI-1 (10 μM), 10 mM Mg(II), 0 mM ATP, 3×.; (C) fluorescence difference for PKCβI-1 (10 μM), 10 mM Mg(II), 3×; (D) fluorescence increase for PKCβI-1 (10 μM) at 10 mM Mg (II).

For the next data set, the target named is T1, PKCε (Homo sapiens, UniProt Q02156).
T1 sequence (Q02156 1-737): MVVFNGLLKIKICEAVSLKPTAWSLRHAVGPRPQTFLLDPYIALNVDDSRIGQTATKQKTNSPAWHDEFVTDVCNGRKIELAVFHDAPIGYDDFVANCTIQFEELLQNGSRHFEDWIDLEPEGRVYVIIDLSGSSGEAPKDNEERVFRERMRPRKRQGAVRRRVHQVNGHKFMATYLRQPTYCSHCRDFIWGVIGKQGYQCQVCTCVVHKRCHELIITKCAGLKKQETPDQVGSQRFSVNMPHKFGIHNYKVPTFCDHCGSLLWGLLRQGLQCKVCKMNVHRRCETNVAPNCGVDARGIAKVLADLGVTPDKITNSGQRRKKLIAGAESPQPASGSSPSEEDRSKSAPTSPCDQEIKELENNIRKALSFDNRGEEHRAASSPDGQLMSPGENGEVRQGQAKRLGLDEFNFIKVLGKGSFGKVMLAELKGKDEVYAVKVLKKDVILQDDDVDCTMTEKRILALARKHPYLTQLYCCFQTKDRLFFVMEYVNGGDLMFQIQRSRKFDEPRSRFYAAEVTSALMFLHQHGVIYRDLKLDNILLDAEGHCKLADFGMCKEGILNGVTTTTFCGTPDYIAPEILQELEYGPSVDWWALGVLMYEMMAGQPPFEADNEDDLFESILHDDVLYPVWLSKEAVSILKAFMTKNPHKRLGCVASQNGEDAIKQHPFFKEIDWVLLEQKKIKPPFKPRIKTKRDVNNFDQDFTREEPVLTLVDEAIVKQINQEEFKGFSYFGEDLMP
The data set is described as follows: Cross-reactivity of PKCα-S10 with PKC isozymes. The settings on record: peptide 1 μM, isozyme 2 ng. The class given is biochemical. The method, then:
(§2) With the kinetic parameters at hand it is possible to test the cross-reactivity of PKCα-S10 with PKC isozymes. In 12 separate reactions PKCα-S10 (1 μM) is subjected to phosphorylation with PKCα, PKCβI, PKCβII, PKCγ, PKCδ, PKCε, PKCζ, PKCη, PKCθ, PKCι, PKCμ and PKCν (2 ng).

Another data set deals with PKCθ (Homo sapiens, UniProt Q04759). The data set is described as follows: Cross-reactivity of PKCα-S10 with PKC isozymes. The settings on record: peptide 1 μM, isozyme 2 ng. Format: biochemical. On the procedure:
as §2

A further data set concerns the target PKCδ (Homo sapiens, UniProt Q05655). The experiment in a line: Cross-reactivity of PKCα-S10 with PKC isozymes. The class given is biochemical. The settings on record: peptide 1 μM, isozyme 2 ng. The method, then: as §2
The target of a further data set is PKCγ (Homo sapiens, UniProt P05129). The data set is described as follows: Cross-reactivity of PKCα-S10 with PKC isozymes. Format: biochemical. The settings on record: peptide 1 μM, isozyme 2 ng. On the procedure: as §2
Another data set has as its target PKCα (Homo sapiens, UniProt P17252). The experiment in a line: Kinetic parameters of the peptides with PKCα (continuous fluorescence assay). The class given is biochemical.
Text: To solve for enzyme kinetic parameters for this reaction, determination of the initial rate of product formation from the increase in fluorescence intensity is necessary. With this sensor, a correction for the decrease in fluorescence intensity due to the starting material being consumed is needed to determine the rate of product formation from the initial slope. The fluorescence intensity at any given point can be determined from the following equation: I(t)=fSs(t)+fPP(t) (1) where I(t) is the fluorescence intensity, S(t) is the amount of substrate in μM, P(t) is the amount of product in μM, fS is the fluorescence intensity per μM of substrate, and fP is fluorescence intensity per μM of product. The amount of substrate and product at any given point are related by: S(t)+P(t)=S0 (2) where S0 is the initial amount of substrate. Substitution of (2) into (1) followed by rearrangement, yields:
[formula] The initial slope of the reaction, dI(t)/dt, was measured within the first 5% of substrate turnover. The constants fP and fS were calculated from the slope of a line of fluorescence intensity versus concentration of P and S, respectively. A linear fit of a Hanes plot ([S]/V vs. […]) was used to find Km and Vmax.
For in vitro applications, the concentration of kinase can range from about 0.5 nM to about 1 μM, typically not more than about 500 nM, and preferably not more than about 250 nM. The concentrations of sensor can vary, but usually ranges between about 0.01 μM to 0.1 mM. Adenosine 5′-triphosphate (ATP) is the preferred source of phosphate, in stock solutions of about 10-100 mM. Because most kinases have Km values for ATP in the range of about 10-150 μM, saturating concentrations of ATP are used to arrive at values of Km and Vmax for the substrates. For in vivo applications, when the sensor is internalized into a cell, sufficient kinases, Mg^2+ and phosphate sources exist in the cytosol. For in vivo sensing, a cellular internalization sequence can be included in the sensor design. Suitable cellular internalization sequences include Penetratins, HIV-Tat domains and poly-arginine sequences (Lindgren, M. et al. Trends Pharmacol. Sci. 2000, 21, 99-103; Wadia, J. S. et al. Curr Opin. Biotech. 2002, 13, 52-56; Carrigan, C. N. Analyt. Biochem. 2005, 341, 290-298).
For applications in which the kinase is dependent on cofactors, a source of cofactor is also included in the sample. For example, for PKC, sources of Ca^2+, phospholipid and diacylglycerol are needed.
as §1

Chain of PKCδ (Q05655 whole entry): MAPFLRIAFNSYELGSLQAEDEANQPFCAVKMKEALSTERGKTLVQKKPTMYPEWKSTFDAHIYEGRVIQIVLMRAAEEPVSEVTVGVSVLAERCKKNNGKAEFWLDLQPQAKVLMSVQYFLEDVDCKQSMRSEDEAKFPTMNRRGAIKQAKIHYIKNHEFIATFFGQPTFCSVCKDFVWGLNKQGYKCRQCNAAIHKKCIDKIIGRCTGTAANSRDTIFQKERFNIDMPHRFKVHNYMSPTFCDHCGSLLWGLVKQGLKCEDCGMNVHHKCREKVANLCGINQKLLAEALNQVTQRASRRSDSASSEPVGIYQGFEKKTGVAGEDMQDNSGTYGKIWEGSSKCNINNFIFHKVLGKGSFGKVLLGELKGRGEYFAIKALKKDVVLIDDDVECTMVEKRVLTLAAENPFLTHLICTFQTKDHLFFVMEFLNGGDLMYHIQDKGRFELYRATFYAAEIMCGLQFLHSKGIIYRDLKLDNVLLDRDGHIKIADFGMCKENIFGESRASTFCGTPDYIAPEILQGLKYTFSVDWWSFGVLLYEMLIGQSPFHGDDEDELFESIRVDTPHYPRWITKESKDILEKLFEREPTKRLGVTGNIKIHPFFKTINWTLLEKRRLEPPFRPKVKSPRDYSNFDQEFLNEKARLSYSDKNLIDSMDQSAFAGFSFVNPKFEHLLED
Chain of PKCθ (Q04759 whole entry): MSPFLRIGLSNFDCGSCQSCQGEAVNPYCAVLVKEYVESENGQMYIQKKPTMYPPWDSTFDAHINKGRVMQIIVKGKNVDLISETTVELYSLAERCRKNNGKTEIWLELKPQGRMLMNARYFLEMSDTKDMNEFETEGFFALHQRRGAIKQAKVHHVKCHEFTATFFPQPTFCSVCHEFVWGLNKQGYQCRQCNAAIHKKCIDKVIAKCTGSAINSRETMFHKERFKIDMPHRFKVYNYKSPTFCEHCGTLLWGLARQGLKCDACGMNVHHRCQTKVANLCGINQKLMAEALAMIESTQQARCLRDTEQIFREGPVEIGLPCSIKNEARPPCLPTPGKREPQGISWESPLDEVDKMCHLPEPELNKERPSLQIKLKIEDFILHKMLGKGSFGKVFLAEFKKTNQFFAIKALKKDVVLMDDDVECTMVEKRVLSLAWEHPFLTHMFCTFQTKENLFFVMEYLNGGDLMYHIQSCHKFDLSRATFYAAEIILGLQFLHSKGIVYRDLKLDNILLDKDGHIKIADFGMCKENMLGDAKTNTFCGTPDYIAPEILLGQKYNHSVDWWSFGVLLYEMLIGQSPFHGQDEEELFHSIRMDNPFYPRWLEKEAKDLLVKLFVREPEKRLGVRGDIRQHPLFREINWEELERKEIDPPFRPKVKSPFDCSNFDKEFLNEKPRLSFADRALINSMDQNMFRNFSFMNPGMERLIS

With “Ac-RRR-C(Sox)-ASFRRKA-CONH2 [PKCα-S10(P10), Sox chemosensor with extended recognition domain for PKCα]”, the “Fluorescence Increase” value in data set [1] was found to be 3.9 x. Moreover, the “activity of isozyme on peptide” value with PKCε is on record as “very little activity”; with PKCδ it was “no activity”. Also, the “activity of isozyme on peptide compared with PKCα” value in the data set with PKCθ is recorded as “slightly more active than PKCα”; with PKCγ it was “comparable activities to that of PKCα”. The “selectivity for PKCα” value with PKCα (as determined by kinetic parameters, compared with PKCα-S1) was “much more selective for PKCα”. Moreover, the Km with PKCα (with PKCα) is 0.12 ± 0.018 µM. Also, the Vmax with PKCα (with PKCα) came out at 2.2 ± 0.25 µmol/min/mg.

In general, Km refers to the substrate concentration at which the rate is half of its maximum. A word on the Vmax: it is the rate approached at saturating substrate.
